Paper PMC8456507

B1: NCR (dsDNA)
DNA 1: AGCTTAAGTAACGCCATTTTGCAAGGCA
DNA 2: TGCCTTGCAAAATGGCGTTACTTAAGCT
B2: NCRm (dsDNA)
DNA 1: AGCTTAAGTAATACGGCTATGCAAGGCA
DNA 2: TGCCTTGCATAGCCGTATTACTTAAGCT

Target: rYY1 (UniProt Q00899 1-414)
Assay: pull-down

Chain of rYY1 (Q00899 whole entry): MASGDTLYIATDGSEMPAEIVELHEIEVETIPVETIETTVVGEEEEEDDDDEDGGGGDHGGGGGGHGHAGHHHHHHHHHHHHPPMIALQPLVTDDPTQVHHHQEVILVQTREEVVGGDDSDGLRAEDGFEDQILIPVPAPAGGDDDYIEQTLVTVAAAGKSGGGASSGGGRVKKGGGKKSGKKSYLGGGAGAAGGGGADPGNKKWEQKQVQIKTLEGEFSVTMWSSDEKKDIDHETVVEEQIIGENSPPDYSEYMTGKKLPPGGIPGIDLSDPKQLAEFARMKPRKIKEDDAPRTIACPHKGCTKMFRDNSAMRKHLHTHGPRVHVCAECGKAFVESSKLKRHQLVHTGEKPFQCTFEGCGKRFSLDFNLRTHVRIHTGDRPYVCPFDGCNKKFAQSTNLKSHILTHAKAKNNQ

| Binder | binding result |
| --- | --- |
| B1 | binds |
| B2 | no binding |
